In patent publication US20250262210A1 (TRUSTEES OF COLUMBIA UNIVERSITY IN THE CITY OF NEW YORK, published 2025):

Columns and labels:
ZCCHC6 = target: T1, ZCCHC6 (human, UniProt Q5VYS8 1-1495, limits assumed); assay: IP/MS, LZTR1 R810W-FLAG, U87
T1 sequence (looked up): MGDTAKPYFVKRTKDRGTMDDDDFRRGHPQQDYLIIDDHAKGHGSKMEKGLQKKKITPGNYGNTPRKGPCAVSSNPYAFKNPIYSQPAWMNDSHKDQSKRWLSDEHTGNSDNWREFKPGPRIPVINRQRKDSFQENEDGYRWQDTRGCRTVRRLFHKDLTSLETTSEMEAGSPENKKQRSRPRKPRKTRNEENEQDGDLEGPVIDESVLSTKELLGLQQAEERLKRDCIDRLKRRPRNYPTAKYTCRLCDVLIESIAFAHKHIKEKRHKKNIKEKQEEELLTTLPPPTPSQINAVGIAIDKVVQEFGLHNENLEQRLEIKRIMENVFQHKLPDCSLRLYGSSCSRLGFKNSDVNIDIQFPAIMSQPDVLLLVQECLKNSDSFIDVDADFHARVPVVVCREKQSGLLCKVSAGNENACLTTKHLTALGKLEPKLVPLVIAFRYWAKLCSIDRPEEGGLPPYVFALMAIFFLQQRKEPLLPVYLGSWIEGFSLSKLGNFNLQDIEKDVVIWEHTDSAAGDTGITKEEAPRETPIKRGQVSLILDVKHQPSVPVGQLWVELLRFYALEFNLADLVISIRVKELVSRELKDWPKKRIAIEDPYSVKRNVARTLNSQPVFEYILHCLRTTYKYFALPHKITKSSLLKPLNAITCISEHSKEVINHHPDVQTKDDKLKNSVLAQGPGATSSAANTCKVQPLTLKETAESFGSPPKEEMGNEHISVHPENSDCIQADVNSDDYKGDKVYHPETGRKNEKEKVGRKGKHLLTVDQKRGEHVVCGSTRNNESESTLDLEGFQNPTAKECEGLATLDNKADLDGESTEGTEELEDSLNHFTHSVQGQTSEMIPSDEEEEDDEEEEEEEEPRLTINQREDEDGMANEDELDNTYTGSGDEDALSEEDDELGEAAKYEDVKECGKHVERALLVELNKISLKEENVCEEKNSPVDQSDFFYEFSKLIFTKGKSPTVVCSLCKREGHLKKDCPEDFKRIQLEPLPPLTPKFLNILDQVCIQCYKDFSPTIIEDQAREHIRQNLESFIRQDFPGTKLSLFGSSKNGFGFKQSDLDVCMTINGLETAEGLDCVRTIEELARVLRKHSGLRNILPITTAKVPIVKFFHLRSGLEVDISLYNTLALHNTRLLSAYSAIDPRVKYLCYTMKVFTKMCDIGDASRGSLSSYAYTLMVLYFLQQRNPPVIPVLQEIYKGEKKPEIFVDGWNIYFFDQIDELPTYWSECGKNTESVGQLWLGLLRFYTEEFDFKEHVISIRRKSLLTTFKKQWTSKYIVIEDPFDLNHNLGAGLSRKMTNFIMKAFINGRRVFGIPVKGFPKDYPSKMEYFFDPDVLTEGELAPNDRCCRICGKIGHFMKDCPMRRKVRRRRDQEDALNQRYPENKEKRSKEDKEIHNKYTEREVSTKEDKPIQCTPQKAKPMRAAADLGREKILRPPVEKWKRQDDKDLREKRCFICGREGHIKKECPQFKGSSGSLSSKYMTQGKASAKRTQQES
Method in brief: (§1)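 Extracted peptides in 3% acetonitrile/0.1% formic acid ran on a 50 cm C18 column into an Orbitrap Fusion, with MaxQuant identification and spectral counting.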

ARHGEF40 = ARHGEF40 (human, UniProt Q8TER5 1-1519, limits assumed); assay: IP/MS, LZTR1 R810W-FLAG, U87
Sequence of ARHGEF40 (Q8TER5 whole entry): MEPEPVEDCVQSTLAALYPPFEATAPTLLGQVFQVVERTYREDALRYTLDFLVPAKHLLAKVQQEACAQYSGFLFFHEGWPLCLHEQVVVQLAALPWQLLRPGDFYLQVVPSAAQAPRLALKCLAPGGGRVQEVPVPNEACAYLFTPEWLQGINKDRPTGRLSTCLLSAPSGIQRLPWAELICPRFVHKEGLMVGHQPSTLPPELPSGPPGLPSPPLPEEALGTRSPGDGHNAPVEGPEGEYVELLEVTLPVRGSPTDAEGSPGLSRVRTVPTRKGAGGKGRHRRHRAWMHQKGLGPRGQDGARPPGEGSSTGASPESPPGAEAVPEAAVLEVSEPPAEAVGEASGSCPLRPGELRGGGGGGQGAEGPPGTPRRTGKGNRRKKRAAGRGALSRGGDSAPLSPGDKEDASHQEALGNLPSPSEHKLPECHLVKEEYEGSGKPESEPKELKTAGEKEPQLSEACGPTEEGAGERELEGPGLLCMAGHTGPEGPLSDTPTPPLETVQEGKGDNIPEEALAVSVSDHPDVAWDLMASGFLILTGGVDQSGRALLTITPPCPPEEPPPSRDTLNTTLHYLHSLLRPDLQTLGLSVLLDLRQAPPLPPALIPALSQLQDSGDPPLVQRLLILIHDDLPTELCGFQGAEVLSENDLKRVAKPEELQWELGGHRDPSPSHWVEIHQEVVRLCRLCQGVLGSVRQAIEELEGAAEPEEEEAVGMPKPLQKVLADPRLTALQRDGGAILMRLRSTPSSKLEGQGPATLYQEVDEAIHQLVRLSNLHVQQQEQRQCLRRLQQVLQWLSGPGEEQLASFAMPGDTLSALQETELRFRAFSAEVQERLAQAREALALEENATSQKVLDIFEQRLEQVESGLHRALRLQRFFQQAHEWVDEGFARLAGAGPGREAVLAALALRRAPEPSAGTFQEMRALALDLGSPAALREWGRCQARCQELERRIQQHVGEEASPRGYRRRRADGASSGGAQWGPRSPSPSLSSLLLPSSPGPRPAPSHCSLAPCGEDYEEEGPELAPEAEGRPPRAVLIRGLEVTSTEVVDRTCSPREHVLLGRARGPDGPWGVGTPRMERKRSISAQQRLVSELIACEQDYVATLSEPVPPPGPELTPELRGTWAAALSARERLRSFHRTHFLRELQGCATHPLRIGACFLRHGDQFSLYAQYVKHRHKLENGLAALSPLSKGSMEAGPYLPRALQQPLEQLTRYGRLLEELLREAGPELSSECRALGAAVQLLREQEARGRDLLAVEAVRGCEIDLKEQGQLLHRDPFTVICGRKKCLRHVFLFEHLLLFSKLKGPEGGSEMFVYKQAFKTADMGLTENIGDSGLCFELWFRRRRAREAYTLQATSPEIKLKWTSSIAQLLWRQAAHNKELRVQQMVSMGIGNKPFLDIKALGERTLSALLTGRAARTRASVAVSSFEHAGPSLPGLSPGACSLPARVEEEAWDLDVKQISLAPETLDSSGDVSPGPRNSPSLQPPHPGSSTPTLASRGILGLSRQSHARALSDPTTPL
Method in brief: as §1

B1: LZTR1 R810W-FLAG (other, human, UniProt Q8N653 1-840, looked up)
chain: MAGPGSTGGQIGAAALAGGARSKVAPSVDFDHSCSDSVEYLTLNFGPFETVHRWRRLPPCDEFVGARRSKHTVVAYKDAIYVFGGDNGKTMLNDLLRFDVKDCSWCRAFTTGTPPAPRYHHSAVVYGSSMFVFGGYTGDIYSNSNLKNKNDLFEYKFATGQWTEWKIEGRLPVARSAHGATVYSDKLWIFAGYDGNARLNDMWTIGLQDRELTCWEEVAQSGEIPPSCCNFPVAVCRDKMFVFSGQSGAKITNNLFQFEFKDKTWTRIPTEHLLRGSPPPPQRRYGHTMVAFDRHLYVFGGAADNTLPNELHCYDVDFQTWEVVQPSSDSEVGGAEVPERACASEEVPTLTYEERVGFKKSRDVFGLDFGTTSAKQPTQPASELPSGRLFHAAAVISDAMYIFGGTVDNNIRSGEMYRFQFSCYPKCTLHEDYGRLWESRQFCDVEFVLGEKEECVQGHVAIVTARSRWLRRKITQARERLAQKLEQEAAPVPREAPGVAAGGARPPLLHVAIREAEARPFEVLMQFLYTDKIKYPRKGHVEDVLLIMDVYKLALSFQLCRLEQLCRQYIEASVDLQNVLVVCESAARLQLSQLKEHCLNFVVKESHFNQVIMMKEFERLSSPLIVEIVRRKQQPPPRTPLDQPVDIGTSLIQDMKAYLEGAGAEFCDITLLLDGHPRPAHKAILAARSSYFEAMFRSFMPEDGQVNISIGEMVPSRQAFESMLRYIYYGEVNMPPEDSLYLFAAPYYYGFYNNRLQAYCKQNLEMNVTVQNVLQILEAADKTQALDMKRHCLHIIVHQFTKVSKLPTLWSLSQQLLLDIIDSLASHISDKQCAELGADI
notes: Stably expressed in U87 cells by lentivirus; also called LZTR1-FLAG-R810W; LZTR1 RW; not shown: FLAG tag
B1: binds (ZCCHC6); binds (ARHGEF40).
